{"source": "patent US20260226192", "test_system": "Engineered trastuzumab antibody design 18 [anti-Her2 ScFv-FC]", "sequence (chain, as listed by the source, change not shown)": "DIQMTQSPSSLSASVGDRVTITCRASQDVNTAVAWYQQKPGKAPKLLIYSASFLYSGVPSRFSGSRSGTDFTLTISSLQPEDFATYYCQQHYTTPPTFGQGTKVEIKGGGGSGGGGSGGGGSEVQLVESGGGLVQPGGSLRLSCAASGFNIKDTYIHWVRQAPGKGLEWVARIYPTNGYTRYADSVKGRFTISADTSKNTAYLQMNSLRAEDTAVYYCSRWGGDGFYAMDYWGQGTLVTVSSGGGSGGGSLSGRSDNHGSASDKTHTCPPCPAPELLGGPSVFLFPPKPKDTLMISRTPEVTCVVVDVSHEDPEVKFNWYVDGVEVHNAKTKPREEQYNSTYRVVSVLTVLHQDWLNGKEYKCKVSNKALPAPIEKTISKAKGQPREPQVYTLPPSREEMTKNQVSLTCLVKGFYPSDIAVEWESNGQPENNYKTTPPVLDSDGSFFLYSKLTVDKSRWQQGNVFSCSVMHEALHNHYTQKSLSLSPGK"}
{"substance": "uPA protease", "values": [{"measurement": "protease digestion with uPA (1:1 molar), SDS-PAGE", "value": "uPA cleaved the antibody variants and generated F(ab) fragments in a similar manner as it did for the other designs"}]}
